We go through one sequence from article PMC4433263, “Identification of Rv3852 as an Agrimophol-Binding Protein in Mycobacterium tuberculosis” (PLoS ONE, 2015).

In series [1] the target is Rv2466c (UniProt O53193). Description: EMSA. The conditions noted are these: binding buffer and pH not stated ([…].
The target in series [2] is T1, Rv3852 (Mycobacterium tuberculosis H37Rv) (UniProt I6YHB0).
T1 sequence: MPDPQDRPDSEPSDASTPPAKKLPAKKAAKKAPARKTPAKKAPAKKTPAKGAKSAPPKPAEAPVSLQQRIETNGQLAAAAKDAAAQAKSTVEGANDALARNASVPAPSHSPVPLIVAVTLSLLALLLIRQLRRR
The experiment in a line: EMSA. As to conditions: binding buffer and pH not stated ([…]. (Mobility shift assays separate free from complexed probe on a gel.)

Chain of Rv2466c (O53193 whole entry): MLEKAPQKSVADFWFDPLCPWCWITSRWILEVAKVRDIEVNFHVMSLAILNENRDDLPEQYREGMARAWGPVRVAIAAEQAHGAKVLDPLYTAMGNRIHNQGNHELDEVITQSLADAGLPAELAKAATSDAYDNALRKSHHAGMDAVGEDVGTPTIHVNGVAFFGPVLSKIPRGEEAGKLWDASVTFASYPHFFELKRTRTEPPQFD

As for “AATTCCGGCGCCTTCCCGGGCCGGAAGCCGGGCAGCCGCACCTGTTTGGCCAGCTCTTTGTAGGCCCGCTGGAAATCCGGCTCAAGCTCGGCGAATGGCACCTCCACGTTGATACGAACCCGGGTGGGGCTCAACTGCTCGACGGTGCTCTTCACGGGTGTGCTCCTTGGTAGTCGATAACGGCGGTCGGCTGGTCGGGGTGACAGGATTTGAACCTGCGGCCTTCCGCTCCCAAAGCGGATGCGCTACCAAGCTGCGCTACACCCCGCGCTGACCTCGCGATCCTACG / AATTCGTAGGATCGCGAGGTCAGCGCGGGGTGTAGCGCAGCTTGGTAGCGCATCCGCTTTGGGAGCGGAAGGCCGCAGGTTCAAATCCTGTCACCCCGACCAGCCGACCGCCGTTATCGACTACCAAGGAGCACACCCGTGAAGAGCACCGTCGAGCAGTTGAGCCCCACCCGGGTTCGTATCAACGTGGAGGTGCCATTCGCCGAGCTTGAGCCGGATTTCCAGCGGGCCTACAAAGAGCTGGCCAAACAGGTGCGGCTGCCCGGCTTCCGGCCCGGGAAGGCGCCGG [proU2]”, the binding result was “no binding” in series [1] and “binds” in series [2].
